Laboratory results as given in publication doi:10.1101/2025.04.23.649697, “Biomass-derived Lignin Nanoparticles for the Sustained Delivery of Vascular Endothelial Growth Factor-C” (bioRxiv, 2025).

Target: the molecule itself
Assay: SEC; HiLoad 26/600 Superdex 200 pg in PBS, after IMAC; peaks identified using BSA as a molecular weight marker

B1: mature Vascular Endothelial Growth Factor C (dNdC-hVEGF-C-H6) (ligand, human, UniProt P49767 112-227, looked up)
chain: AHYNTEILKSIDNEWRKTQCMPREVCIDVGKEFGVATNTFFKPPCVSVYRCGGCCNSEGLQCMNTSTSYLSKTLFEITVPLSQGPKPVTISFANHTSCRCMSKLDVYRQVHSIIRR
notes: VEGF-C, human, dNdC form (called mature VEGFC); secreted with the BiP signal peptide of the vector pMT-Ex; SEC gave dimeric and monomeric species; The dimeric peak was collected and used for nanoparticle loading and the bioassays; also called mature VEGFC; purified mature VEGFC; not shown: His6 (H6 in the construct's name)
Question: With B1 as the protein, how does the “stoichiometry N” value read?
Answer: 2
